Results on 64 sequences are retold here after the supplement of paper PMC7877785.

A short description of this data set: self-splicing fitness, log relative to wild type (ln ratio); higher = more splicing; Tetrahymena group I intron in knt gene, E. coli kanamycin selection, DiMSum; sequences stand for … in CUCUCU…GGAGGGAAAAGUUAUCAGGCAUGCACCUGGUAGCUAGUCUUUAAACCAAUAGAUUGCAUCGGUUUAAAAGGCAAGACCGUCAAAUUGCGGGAAAGGGGUCAACAGCCGUUCAGUACCAAGUCUCAGGGGAAACUUUGAGAUGGCCUUGCAAAGGGUAUGGUAAUAAGCUGACGGACAUGGUCCUAACCACGCAGCCAAGUCCUAAGUCAACAGAUCUUCUGUUGAUAUGGAUGCAGUUCACAGACUAAAUGUCGGUCGGGGAAGAUGUAUUCUUCUCAUAAGAUAUAGUCGGACCUCUCCUUAAUGGGAGCUAGCGGAUGAAGUGAUGCAACACUGGAGCCGCUGGGAACUAAUUUGUAUGCGAAAGUAUAUUGAUUAGUUUUGGAGUACUCGUGGUCG
In short, it runs like this: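 The eight P1ex-region nucleotides of an intron in the knt kanamycin-resistance gene on pET-22b(+) were all randomised and the library put into E. coli BL21(DE3). Six replicate transformations were grown overnight at 37°C or 30°C on LB agar with or without 25 μg/mL kanamycin, together with 100 μg/mL carbenicillin, 50 μM IPTG and 0.2% rhamnose. Colonies were pooled and amplicon-sequenced on an Illumina HiSeq 2500. Fitness from DiMSum is the error-weighted combination of wild-type-normalised replicate fold changes, kanamycin over none.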

± gives the uncertainty stated by the source.

On to AGUAAGCAAUAUUACGAAUG, for which the “self-splicing fitness (ln)” value (30 °C) was -1.15 ± 0.28.

Turning to UAGAAGCAAUAUUACGGAAG, the “self-splicing fitness (ln)” value (30 °C) was -2.16 ± 0.22 and the “self-splicing fitness (ln)” value (37 °C) is -0.543 ± 0.23.

Take AUUAAGCAAUAUUACGACCA: the “self-splicing fitness (ln)” value was -0.395 ± 0.2 (30 °C) and -0.571 ± 0.25 (37 °C).

In the case of GAUGAGCAAUAUUACGCUCA, the “self-splicing fitness (ln)” value runs as follows: (30 °C) -1.18 ± 0.41; (37 °C) -0.934 ± 0.42.

As for UGGAAGCAAUAUUACGGUGC, the “self-splicing fitness (ln)” value is -2.93 ± 0.3 (30 °C) and -2.86 ± 0.43 (37 °C).

For the sequence ACAUAGCAAUAUUACGGCCC, the “self-splicing fitness (ln)” value is -1.29 ± 0.14 (30 °C) and -0.169 ± 0.23 (37 °C).

In the case of CGUAAGCAAUAUUACGGCUC, under “37 °C”, the “self-splicing fitness (ln)” value is -0.977 ± 0.42.

GAUCAGCAAUAUUACGCUUC: the “self-splicing fitness (ln)” value by setting is: (30 °C) -3.16 ± 0.22; (37 °C) -2.25 ± 0.43.

As for UUUGAGCAAUAUUACGAUAG, the “self-splicing fitness (ln)” value is, setting by setting: (30 °C) -2.09 ± 0.19; (37 °C) -1.87 ± 0.23.

Regarding CGAAAGCAAUAUUACGUCAC, the “self-splicing fitness (ln)” value (37 °C) was -2.32 ± 0.32.

Turning to UCCUAGCAAUAUUACGUCCA, the “self-splicing fitness (ln)” value was -3.15 ± 0.48 (30 °C) and -1.56 ± 0.34 (37 °C).

For the sequence CACGAGCAAUAUUACGGUAA, where the note is “37 °C”, the “self-splicing fitness (ln)” value is -2.37 ± 0.27.

In the case of ACCCAGCAAUAUUACGCAGG, the “self-splicing fitness (ln)” value reads like this: (30 °C) -3.07 ± 0.11; (37 °C) -2.48 ± 0.16.

With UAGCAGCAAUAUUACGUCUU, the “self-splicing fitness (ln)” value was -1.07 ± 0.071 (30 °C) and -0.289 ± 0.085 (37 °C).

For the sequence CUAAAGCAAUAUUACGCAUA, the “self-splicing fitness (ln)” value (30 °C) was -3.66 ± 0.23 and the “self-splicing fitness (ln)” value (37 °C) is -2.65 ± 0.24.

For the sequence AUAUAGCAAUAUUACGAUGU, the “self-splicing fitness (ln)” value is 0.361 ± 0.18 (30 °C) and -0.83 ± 0.23 (37 °C).

Take AUAGAGCAAUAUUACGCUGA: the “self-splicing fitness (ln)” value (30 °C) was -1.26 ± 0.15 and the “self-splicing fitness (ln)” value (37 °C) was -1.03 ± 0.17.

With GUGAAGCAAUAUUACGUUCU, the “self-splicing fitness (ln)” value reads like this: (30 °C) -0.0481 ± 0.072; (37 °C) -0.218 ± 0.086.

On to CAUCAGCAAUAUUACGAGUU, for which the “self-splicing fitness (ln)” value was -4.08 ± 0.19 (30 °C) and -2.53 ± 0.12 (37 °C).

Regarding GCUCAGCAAUAUUACGAUCG, the “self-splicing fitness (ln)” value is -1.02 ± 0.1 (30 °C) and 0.77 ± 0.13 (37 °C).

For the sequence CUCUAGCAAUAUUACGGGAG, the “self-splicing fitness (ln)” value by setting is: (30 °C) -3.78 ± 0.19; (37 °C) -2.26 ± 0.19.

Turning to GUAAAGCAAUAUUACGUCCA, the “self-splicing fitness (ln)” value is -0.574 ± 0.088 (30 °C) and 0.0855 ± 0.12 (37 °C).

Regarding GGAUAGCAAUAUUACGCCCG, the “self-splicing fitness (ln)” value was -1.49 ± 0.24 (30 °C) and -0.949 ± 0.27 (37 °C).

Regarding GGCAAGCAAUAUUACGACUG, the “self-splicing fitness (ln)” value (30 °C) was -1.02 ± 0.12 and the “self-splicing fitness (ln)” value (37 °C) is -0.532 ± 0.17.

Consider AUAAAGCAAUAUUACGCGCA, for which the “self-splicing fitness (ln)” value was 0.0901 ± 0.058 (30 °C) and -0.398 ± 0.075 (37 °C).

GCAUAGCAAUAUUACGAUCG: the “self-splicing fitness (ln)” value by setting is: (30 °C) -1.04 ± 0.11; (37 °C) -0.34 ± 0.12.

On to UAGGAGCAAUAUUACGCAUU, for which the “self-splicing fitness (ln)” value reads like this: (30 °C) -3.91 ± 0.35; (37 °C) -2.42 ± 0.42.

Turning to GCCGAGCAAUAUUACGUCGA, the “self-splicing fitness (ln)” value runs as follows: (30 °C) -2.36 ± 0.2; (37 °C) -0.182 ± 0.14.

As to CCCUAGCAAUAUUACGUACC, the “self-splicing fitness (ln)” value by setting is: (30 °C) -1.72 ± 0.18; (37 °C) -1.05 ± 0.3.

Consider CGUGAGCAAUAUUACGAUGA, for which the “self-splicing fitness (ln)” value was -3.64 ± 0.23 (30 °C) and -2.04 ± 0.17 (37 °C).

On to CGUGAGCAAUAUUACGGUGC, for which the “self-splicing fitness (ln)” value is -4.97 ± 0.41 (30 °C) and -3.39 ± 0.17 (37 °C).

UUGAAGCAAUAUUACGGGUC: the “self-splicing fitness (ln)” value reads like this: (30 °C) -3.77 ± 0.25; (37 °C) -1.71 ± 0.25.

For GAGGAGCAAUAUUACGGUUU, the “self-splicing fitness (ln)” value (30 °C) is -2.44 ± 0.13 and the “self-splicing fitness (ln)” value (37 °C) is -2.28 ± 0.16.

Turning to CGAUAGCAAUAUUACGUGGG, the “self-splicing fitness (ln)” value (30 °C) was -2.61 ± 0.17 and the “self-splicing fitness (ln)” value (37 °C) is -0.763 ± 0.16.

Turning to UCUUAGCAAUAUUACGUUCG, the “self-splicing fitness (ln)” value is -2.21 ± 0.11 (30 °C) and -1.38 ± 0.18 (37 °C).

Consider CUGAAGCAAUAUUACGCCGU, for which the “self-splicing fitness (ln)” value by setting is: (30 °C) -2.92 ± 0.31; (37 °C) -2.4 ± 0.3.

For the sequence GUGAAGCAAUAUUACGUUGA, the “self-splicing fitness (ln)” value was -1.56 ± 0.078 (30 °C) and -0.398 ± 0.093 (37 °C).

GUUAAGCAAUAUUACGGAGA: the “self-splicing fitness (ln)” value is -3.29 ± 0.26 (30 °C) and -2.57 ± 0.25 (37 °C).

In the case of GGCAAGCAAUAUUACGAUGA, the “self-splicing fitness (ln)” value by setting is: (30 °C) -1.07 ± 0.11; (37 °C) -0.765 ± 0.13.

In the case of GCUAAGCAAUAUUACGGAAU, the “self-splicing fitness (ln)” value was -1.68 ± 0.12 (30 °C) and -0.857 ± 0.13 (37 °C).

On to AGGCAGCAAUAUUACGCUUC, for which the “self-splicing fitness (ln)” value (37 °C) was -1.31 ± 0.28.

Regarding GACUAGCAAUAUUACGGUCC, the “self-splicing fitness (ln)” value (37 °C) is -1.49 ± 0.42.

Turning to UAAGAGCAAUAUUACGAGGG, the “self-splicing fitness (ln)” value runs as follows: (30 °C) -3.64 ± 0.14; (37 °C) -2.53 ± 0.16.

In the case of CAUUAGCAAUAUUACGAGGA, the “self-splicing fitness (ln)” value (30 °C) is -2.75 ± 0.35.

In the case of AUGGAGCAAUAUUACGCGGU, the “self-splicing fitness (ln)” value (30 °C) is -2.6 ± 0.25 and the “self-splicing fitness (ln)” value (37 °C) is -2.29 ± 0.25.

CUCUAGCAAUAUUACGGCAC: the “self-splicing fitness (ln)” value (30 °C) was -2.61 ± 0.26.

As to GAGCAGCAAUAUUACGAACA, the “self-splicing fitness (ln)” value is -1.47 ± 0.12 (30 °C) and -1.07 ± 0.15 (37 °C).

With AAUUAGCAAUAUUACGAUAA, the “self-splicing fitness (ln)” value is -0.869 ± 0.098 (30 °C) and -0.069 ± 0.14 (37 °C).

For GCUAAGCAAUAUUACGCGGA, the “self-splicing fitness (ln)” value is, setting by setting: (30 °C) -2.73 ± 0.2; (37 °C) -1.1 ± 0.15.

With UUAUAGCAAUAUUACGACAU, the “self-splicing fitness (ln)” value by setting is: (30 °C) -2.471 ± 0.021; (37 °C) -1.55 ± 0.036.

Turning to UGGCAGCAAUAUUACGGGCC, the “self-splicing fitness (ln)” value (37 °C) was -1.78 ± 0.28.

For the sequence CCAUAGCAAUAUUACGAUUU, the “self-splicing fitness (ln)” value by setting is: (30 °C) -3.31 ± 0.2; (37 °C) -2.37 ± 0.23.

In the case of AAGAAGCAAUAUUACGCCUA, the “self-splicing fitness (ln)” value was -0.339 ± 0.12 (30 °C) and -0.209 ± 0.13 (37 °C).

For UUGAAGCAAUAUUACGUUUG, the “self-splicing fitness (ln)” value runs as follows: (30 °C) -1.6 ± 0.12; (37 °C) -0.811 ± 0.19.

In the case of CCUCAGCAAUAUUACGUAAC, the “self-splicing fitness (ln)” value (37 °C) is -2.13 ± 0.47.

On to GACUAGCAAUAUUACGCCGA, for which the “self-splicing fitness (ln)” value runs as follows: (30 °C) -0.898 ± 0.21; (37 °C) -0.421 ± 0.2.

For CAGAAGCAAUAUUACGAAGC, the “self-splicing fitness (ln)” value (30 °C) was -2.87 ± 0.31.

As for GGGCAGCAAUAUUACGAUAG, the “self-splicing fitness (ln)” value reads like this: (30 °C) -3.54 ± 0.2; (37 °C) -2.43 ± 0.22.

On to AGGAAGCAAUAUUACGUUGC, for which the “self-splicing fitness (ln)” value (30 °C) is -3.23 ± 0.37 and the “self-splicing fitness (ln)” value (37 °C) is -1.29 ± 0.41.

As to UAUGAGCAAUAUUACGGCCU, under “30 °C”, the “self-splicing fitness (ln)” value is -4 ± 0.37.

AUGUAGCAAUAUUACGUUAG: the “self-splicing fitness (ln)” value (30 °C) was -1.89 ± 0.22 and the “self-splicing fitness (ln)” value (37 °C) is -2.97 ± 0.4.

Consider UGUGAGCAAUAUUACGUGUG, for which the “self-splicing fitness (ln)” value runs as follows: (30 °C) -2.7 ± 0.11; (37 °C) -0.66 ± 0.13.

In the case of UCUUAGCAAUAUUACGAUCC, under “30 °C”, the “self-splicing fitness (ln)” value was -1.98 ± 0.38.

With UUGUAGCAAUAUUACGUCGA, the “self-splicing fitness (ln)” value runs as follows: (30 °C) -0.938 ± 0.088; (37 °C) -0.226 ± 0.11.
